According to patent publication US20090169546A1 (published 2009):
No end group written: not given here.

T1: recombinant HMG1 produced in E. coli as calmodulin binding protein (CBP) fusion (human)
T1 chain: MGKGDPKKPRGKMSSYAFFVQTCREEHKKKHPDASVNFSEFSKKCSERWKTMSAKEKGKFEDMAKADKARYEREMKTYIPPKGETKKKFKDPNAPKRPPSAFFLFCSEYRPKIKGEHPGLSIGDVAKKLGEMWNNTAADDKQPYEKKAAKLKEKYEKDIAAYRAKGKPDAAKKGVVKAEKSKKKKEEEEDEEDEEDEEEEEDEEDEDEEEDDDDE

T2: HMGB1 B-box peptide 91-108 (human, also: biotinylated, site not given here)
T2 peptide: DPNAPKRPPSAFFLFCSE

B1: anti-HMG1 antibody G2 (antibody, V domains shown)
VH: EVQLLESGGGLVQPGGSLRLSCAASGFTFSWYKMQWVRQAPGKGLEWVSGISPSGGSTAYADSVKGRFTISRDNSKNTLYLQMNSLRAEDTAVYYCAKMGLFNTGNSYVDYWGQGTLVTVSS
VL: AQSELTQPPSVSEAPGQRVTISCSGSTSNIGNNAVIWYQQLPGKAPKLLIYYDDLLPSGVSDRFSGSKSGTSGSLAISGLQSEDEADYYCASWDDNLNGPLFGGGTKLTVL
B2: anti-HMG1 antibody G9 (antibody, V domains shown)
VH: EVQLLESGGGLVQPGGSLRLSCAASGFTFSSYDMFWVRQAPGKGLEWVSRISPSGGYTYYADSVKGRFTISRDNSKNTLYLQMNSLRAEDTAVYYCARLRYFDSRGYAFDIWGQGTMVTVSS
VL: DIQMTQSPGTLSLSPGERATLSCRASQSVRSSYLAWYQQKPGQAPRLLIYGASTRATGIPDRFSGSGSGTDFTLTISRLEPEDFAVYYCQQYGTSRWTFGQGTKVEIK
B3: anti-HMG1 antibody G12 (antibody, V domains shown)
VH: EVQLLESGGGLVQPGGSLRLSCAASGFTFSYYMMTWVRQAPGKGLEWVSSISPSGGYTIYADSAKGRFTISRDNSKNTLYLQMNSLRAEDTAVYYCARALSTGSFWDYWGQGTLVTVSS
VL: DIQMTQSPGTLSLSPGERATLSCRASESLTSTYVAWYQHKPGQAPRLLIHGGSTRATGIPVRFSGSGSGTDFTLTIATLEPEDFAVYYCQQYGSSPYTFGQGTKLEIK
B4: anti-HMG1 antibody G16 (antibody, V domains shown)
VH: EVQLLESGGGLVQPGGSLRLSCAASGFTFSWYKMTWVRQAPGKGLEWVSSISPSGGFTSYADSVKGRFTISRDNSKNTLYLQMNSLRAEDTAVYYCARDLDIRHAFDIWGQGTMVTVSS
VL: DIQMTQSPGTLSLSPGESGTLSCRASESVSSRHFAWYQQKPGQAPRLLIYGASSRPTGIPDRFSGSGSGTDFTLTLSRLEPEDFAVYFCQYYGSSPYTFGGGTKVEMK
B5: anti-HMG1 antibody G20 (antibody, V domains shown)
VH: EVQLLESGGGLVQPGGSLRLSCAASGFTFSWYDMFWVRQAPGKGLEWVSWISPSGGYTKYADSVKGRFTISRDNSKNTLYLQMNSLRAEDTAMYYCARSGLDYYDSSGYLDAFDIWGQGTMVTVSS
VL: DIQMTQSPSSVSASVGDRVTITCRASQDVSIWLAWYQQKPGKAPKLLIFGASRLQSGVPSRFSGSRSGADFTLTIDSVQPEDFASYYCQQADSFPLTFGGGTKVEIK
B6: anti-HMG1 antibody G34 (antibody, V domains shown)
VH: EVQLLESGGGLVQPGGSLRLSCAASGFTFSHYMMGWVRQAPGKGLEWVSRISPSGGGTVYADSVKGRFTISRDNSKNTLYLQMNSLRAEDTAVYYCARGGNWNYISYYYYYLDVWGKGTTVTVSS
VL: DIQMTQSPSSLSASVGDRVAITCRASQSIDTYLNWYQQKPGKAPKLLIYAASKLEDGVPSRFSGSGTGTDFTLTIRSLQPEDFASYFCQQSYSSPGITFGPGTKVEIK
B7: anti-HMG1 antibody G35 (antibody, V domains shown)
VH: EVQLLESGGGLVQPGGSLRLSCAASGFTFSWYKMVWVRQAPGKGLEWVSSIVPSGGITIYADSVKGRFTISRDNSKNTLYLQMNSLRAEDTAVYYCARVQQWLGRPYFDYWGQGTLVTVSS
VL: DIQMTQSPLSLPVTPGEPASISCRSSQSLLHGNGYNYLDWYLQRPGQSPQLLIYSGSNRASGVPDRFSGSGSGTDFTLKISRVEAEDVGVYYCMQSLQSRTFGQGTKVEIK
B8: anti-HMG1 antibody S6 (antibody, V domains shown)
VH: EVQLLESGGGLVQPGGSLRLSCAASGFTFSWYDMSWVRQAPGKGLEWVSRISPSGGYTMYADSVKGRFTISRDNSKNTLYLQMNSLRAEDTAVYYCARLEVGATSGGTAFDIWGQGTMVTVSS
VL: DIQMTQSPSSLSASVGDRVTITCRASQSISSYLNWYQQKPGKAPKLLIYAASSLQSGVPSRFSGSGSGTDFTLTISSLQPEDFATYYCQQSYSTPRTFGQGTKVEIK
notes: also called ATCC PTA-6143
B9: anti-HMG1 antibody S12 (antibody, V domains shown)
VH: EVQLLESGGGLVQPGGSLRLSCAASGFTFSKYIMHWVRQAPGKGLEWVSGIVPSGGLTEYADSVKGRFTISRDNSKNTLYLQMNSLRAEDTATYYCAKEIFGQFDYWGQGTLVTVSS
VL: AQSALTQPPSVSAAPRQRVTISCSGSTSNIGNNAVTWYQYFPGKAPKLLIYSDNQRPSGVPDRFSGSKSGTSASLAITGLQAEDEADYYCQSYDRGLSVVFGGGTKLTVL
B10: anti-HMG1 antibody S14 (antibody, V domains shown)
VH: EVQLLESGGGLVQPGGSLRLSCAASGFTFSWYETGWVRQAPGKGLEWVSGISPSGGYTQYADSVKGRFTISRDNSKNTLYLQMNSLRAEDTAVYYCARSGVGATKIFDYWGQGTLVTVSS
VL: DIQMTQSPSSLSASVGDRVTIICRANERINTYLNWYQQKPGKAPKLLISGTSSLESGVPSRFSGSGSGTEFTLSISSLQPEDFASYYCQQSYSSPYTFGQGTNLEIR
B11: anti-HMG1 antibody S16 (antibody, V domains shown)
VH: EVQLLESGGGLVQPGGSLRLSCAASGFTFSWYSMLWVRQAPGKGLEWVSYISPSGGFTNYADSVKGRFTISRDNSKNTLYLQMNSLRAEDTAVYYCARWDYNSGWYYDHWGQGTLVTVSS
VL: DIQMTQSPDTLSLSPGERATLSCRASQSVNSRNLAWYQQKPGQAPRLLIYGASTRATGIPDRFSGSVSGTEFTLTISSLQPDDFATYYCQQYNSYFTFGQGTKLEIK
notes: also called ATCC PTA-6259
B12: anti-HMG1 antibody S17 (antibody, V domains shown)
VH: EVQLLESGGGLVQPGGSLRLSCAASGFTFSYYDMHWVRQAPGKGLEWVSRISPSGGYTWYADSVKGRFTISRDNSKNTLYLQMNSLRAEDTAVYYCTRGRYTSGWHEYFDPWGQGTLVTVSS
VL: DIQMTQSPSSLSASVGDRVTITCRASQSIGTYLNWYQQKPGTAPKVLIYAASSLQSGVPSRFSGSGSGTDFTLTISSLQPEDFSTYYCQQSYNTPRTFGQGTKLEIK
B13: anti-HMG1 antibody E11 (antibody, V domains shown)
VH: EVQLLESGGGLVQPGGSLRLSCAASGFTFSRYQMNWVRQAPGKGLEWVSSISPSGGHTHYADSVKGRFTISRDNSKNTLYLQMNSLRAEDTAVYYCAKDGRQGKISTVDHWGQGTLVTVSS
VL: DIQMTQSPGTLSLSPGERATLSCRASQSVRSNFLAWYQQKPGQAPRLLIYGASRRASGIPDRFSGSGFGADFTLSISRLEPEDFAVYYCQQYGSSPNTFGQGSRVEIK

Assays:
[1] = molecular target: T1, recombinant HMG1 produced in E. coli as …; assay: cell-based or functional assay
[2] = molecular target: T1, recombinant HMG1 produced in E. coli as …; assay: BIAcore 3000; mAb amine-coupled to CM5, HMG1 injected in two-fold dilutions; steady-state model
Procedure: HMG1 Binding Affinity via BIAcore Analysis: All experiments were performed on a BIAcore 3000 instrument (BIAcore, Inc., Piscataway, N.J.). Briefly, each mAb was immobilized to a CM5 sensor chip using a standard amine coupling chemistry. Separately a reference (control) flow cell was also prepared. Two-fold, serial dilutions of HMG1 in instrument buffer were sequentially injected at a slow flow rate over the individual mAb and reference flow-cell surfaces. Following the binding and dissociation of HMG1, the mAbs surfaces were regenerated with a brief pulse of 1M NaCl-50 mM NaOH. At the end of each experiment, the binding curves were evaluated using a steady-state model available through the BIAevaluation software supplied by BIAcore, Inc. (Piscataway, N.J.).

[3] = molecular target: T1, recombinant HMG1 produced in E. coli as …; assay: ELISA; HMGB1 preincubated with antibody, then added to immobilised RAGE-Fc
Procedure: HMG1 binding to RAGE-Ig by ELISA: 50 μl/well of RAGE-Fc fusion protein at 5 μg/ml in PBS was added to each well of an ELISA plate and incubated overnight at 4° C. The plate was then blocked with 200 μl of 5% milk at 37° C. for 1 hr and washed 3× with PBS/Tween. 50 μl/well of diluted HMGB1 solution. For dose curves, HMGB1 concentrations started at 4 ug/ml in PBS. For antibody blocking the HMGB1 was preincubated in another plate with human anti-HMG1 antibodies or buffer, then transferred to the RAGE-coated plate. The plates were then incubated at room temperature for 2 hours and washed 3×. To detect any HMG1 bound to the immobilized RAGE-Fc a mixture of biotinylated mouse anti-HMG1 mAbs (10D4, 4H11, 3E10 and 5C12) each at 1 ug/ml, total Ab: 4 ug/ml, were added to each well and the plate was incubated for 1 hour at room temperature. The plate was then washed and Strepavidin-HPR was added to each well and incubated 15 min. The plate was then washed 3× and blotted dry. 100 μl of TMB developing agent was added and the plate read at 650 nm. Values were calculated as percent of inhibition with HMG1 alone equal to 0% inhibition. The data in FIG. 9 and summarized in Table 1 represent the average of two separate experiments.

[4] = molecular target: T2, HMGB1 B-box peptide 91-108; assay: ELISA on biotinylated peptides captured on avidin
Procedure: The plate was then blocked with 4% milk powder dissolved in PBS at 37° C. for 1 hour. The blocking solution was removed and replaced with human anti-HMG1 antibodies at various concentrations (see FIGS. 5A-B). […] HRP activity was detected with Sureblue HRP substrate (KPL). Plates were read at 450 nm using a Kinetic Microplate Reader (Molecular Devices). […] After washing and blocking with 1% BSA in PBS, the biotinylated peptides were individually added into the avidin coated wells and incubated for 30 min at room temperature. The serial diluted antibody G4, S16 and S6 at the initial concentration at 10 μg/ml were then transferred into the wells followed by adding mouse anti human IgG-HRP conjugate (Pierce). Detection was accomplished by adding 50 μl of tetramethylbenzidine (TMB) substrate (KPL) and the absorbance was read at 450 nm.

Row | Binder | IC50, inhibition of rHMG1 stimulated IL-1β release from human PBMCs [1] | IC50, inhibition of rHMG1 stimulated IL-6 release from human PBMCs [1] | IC50, inhibition of rHMG1 stimulated IL-12 release from human PBMCs [1] | IC50, inhibition of rHMG1 stimulated TNF-α release from human PBMCs [1] | Kd [2] | IC50, inhibition of HMG1 stimulated NO release from macrophages [1] | percent inhibition of HMG1 binding to RAGE [3] | binding result [4]
1 | B1 | 5030 ng/mL | 0.994 nM | 1260 ng/mL | 1350 ng/mL | – | – | – | –
2 | B2 | 211 ng/mL | 0.246 nM | – | 248 ng/mL | 125 nM | – | – | –
3 | B3 | 5910 ng/mL | 1.12 nM | 2790 ng/mL | 796 ng/mL | 73 nM | – | – | –
4 | B4 | – | 1.06 nM | – | – | 22 nM | 22000 ng/mL | – | –
5 | B5 | 400 ng/mL | 0.652 nM | – | 598 ng/mL | – | 20400 ng/mL | – | –
6 | B6 | – | 0.858 nM | – | – | 67 nM | – | – | –
7 | B7 | – | 0.564 nM | – | – | 242 nM | – | – | –
8 | B8 | 23.1 ng/mL | 0.174 nM | – | 18.2 ng/mL | 39 nM | 4150 ng/mL | ≥ 35% | –
9 | B9 | – | 1.67 nM | – | – | – | – | – | –
10 | B10 | 67.8 ng/mL | 0.191 nM | – | 66.2 ng/mL | 205 nM | – | – | –
11 | B11 | 6050 ng/mL | 0.56 nM | 1240 ng/mL | 1440 ng/mL | 23 nM | – | ≥ 35% | binds
12 | B12 | 80.9 ng/mL | 0.162 nM | – | – | – | 41700 ng/mL | – | –
13 | B13 | – | 1.22 nM | – | – | – | 101000 ng/mL | – | –
